Assay results from patent publication US20260053882A1 (TRUSTEES OF PRINCETON UNIVERSITY, published 2026).

B1: reconstituted SpyCatcher003 spliced from SpyN-αHER2 and SpyC-αEGFR (FLAG-αHER2-SpyCatcher003-αEGFR-Myc, NrdJ-1 splice product) (other)
chain: DYKDDDDKDLGKKLLEAARAGQDDEVRILMANGADVNAKDEYGLTPLYLATAHGHLEIVEVLLKNGADVNAVDAIGFTPLHLAAFIGHLEIAEVLLKHGADVNAQDKFGKTAFDISIGNGNEDLAEILQKLNGSTSGSVTTLSGLSGEQGPSGDMTTEEDSATHIKFSKRDEDGRELAGATMELRDSSGKTISTWISDGHVKDFYLYPGKYSFVETAAPDGYEVATPIEFTVNEDGQVTVDGEATEGDAHTGSTSGSDLGKKLLEAARAGQDDEVRILMANGADVNADDTWGWTPLHLAAYQGHLEIVEVLLKNGADVNAYDYIGWTPLHLAADGHLEIVEVLLKNGADVNASDYIGDTPLHLAAHNGHLEIVEVLLKHGADVNAQDKFGKTAFDISIDNGNEDLAEILQKLNEQKLISEEDL
notes: On cells it is held by its two DARPins on HER2 and EGFR; also called reconstituted SpyCather003; spliced SpyCatcher003
B3: SpyTag003-AF594 (His6-SpyTag003-SUMO-Cys Alexa Fluor 594 conjugate) (other)
chain: MGSSHHHHHHSSGLVPRGSRGVPHIVMVDAYKRYKGSGESGMSDSEVNQEAKPEVKPEVKPETHINLKVSDGSSEIFFKIKKTTPLRRLMEAFAKRQGKEMDSLRFLYDGIRIQADQTPEDLDMEDNDIIEAHREQIGC
modifications: Alexa Fluor 594 C5 maleimide on the C-terminal Cys
notes: the SUMO is internal (His6-SpyTag003-SUMO-Cys) and is not cut off; also called fluorescently labeled probe

Assays:
[1] = target: B3; assay: in vitro splicing of the C76V FKBP/FRB precursors with rapamycin, reaction with 2 µM SpyTag003-AF594, western blot
Description: (§1) Samples were run on an SDS-PAGE gel. […] The membrane was washed 3×5 min with TBS-T and incubated with primary antibodies at specified dilution (Table 4) on an orbital shaker for 1 hr at room temperature or alternatively overnight at 4° C. After washing 3×5 min with TBS-T, the IRDye secondary antibody or alternatively IRDye Streptavidin were applied for 30 min to 1 hour at room temperature, before imaging on a Li-Cor Odyssey imager (Li-Cor).
Splicing was initiated either by addition of 8 μL, 50 µM rapamycin (DMSO) or 1 μL, 40×TEV protease. Buffered solution was added to compensate for volume differences when reaction components were omitted in control reactions. The reaction was left for 24 hr at 37° C. before further analysis by SDS-PAGE followed by western blotting.

[2] = target: B3; assay: flow cytometry, K562 HER2+/EGFR+ cells, SpyN-αHER2(K31E) + SpyC-αEGFR
[3] = target: B1; assay: confocal microscopy, K562 HER2+/EGFR+ cells treated with SpyN-αHER2 and SpyC-αEGFR (eNrdJ-1^cage), 100 nM probe
Description: Confocal microscopy of K562 cell lines treated with SMART-SpyCatcher for [HER2 AND EGFR] operation. K562^{HER2+/EGFR+} cell line were assayed for SMART-SpyCatcher activation and analyzed by confocal microscopy.
(§2) Suspension cell lines: The K562 cell lines were cultured were individually. For an experiment, the culture of interest was spun down and counted to estimate the cell concentration. Then approximately 200,000 cells were isolated, washed twice with DPBS, 1% w/v BSA, 2 mM CaCl₂) and suspended in 0.4 mL of the buffer. To the sample was added the specified SMART-SpyCatcher at the specified concentration by adding each individual component (SpyN and SpyC) from stock solutions. The sample was incubated for 2 hr, 37° C., 5% CO₂ to allow for actuation. The sample was then cooled at room temperature for 10 min before adding the specified SpyTag003 conjugate at 100 nM. […] The cells were then washed twice with cold DPBS, 1% w/v BSA, 2 mM CaCl₂) and incubated on ice until further analysis by confocal microscopy or flow-cytometry. Samples subjected to SDS-PAGE/western blotting were washed twice with DPBS alone to remove excess BSA.

[4] = target: B1; assay: confocal microscopy, K562 HER2+/EGFR+ cells treated with SMART-SpyCatcher, 100 nM SpyTag003-DNP
Description: The anti-DNP antibody was detected using a goat anti-rabbit IgG AF594 conjugate.
Suspension cell lines: The K562 cell lines were cultured were individually. For an experiment, the culture of interest was spun down and counted to estimate the cell concentration. Then approximately 200,000 cells were isolated, washed twice with DPBS, 1% w/v BSA, 2 mM CaCl₂) and suspended in 0.4 mL of the buffer. To the sample was added the specified SMART-SpyCatcher at the specified concentration by adding each individual component (SpyN and SpyC) from stock solutions. The sample was incubated for 2 hr, 37° C., 5% CO₂ to allow for actuation. The sample was then cooled at room temperature for 10 min before adding the specified SpyTag003 conjugate at 100 nM. […] The cells were then washed twice with cold DPBS, 1% w/v BSA, 2 mM CaCl₂) and incubated on ice until further analysis by confocal microscopy or flow-cytometry.

[5] = target: B1; assay: western blot of K562 HER2+/EGFR+ cells treated with SMART-SpyCatcher
Description: as §1, §2

[6] = target: B1; assay: labeled mutant probe on K562 HER2+/EGFR+ cells treated with SMART-SpyCatcher, washed, AF594 signal
[7] = target: B1; assay: western blot of K562 HER2+/EGFR+ cells treated with SMART-SpyCatcher and 300 nM SpyTag003-APEX2
Description: To the sample was added the specified SMART-SpyCatcher at the specified concentration by adding each individual component (SpyN and SpyC) from stock solutions. The sample was incubated for 2 hr, 37° C., 5% CO₂ to allow for actuation. The sample was then cooled at room temperature for 10 min before adding the specified SpyTag003 conjugate at 100 nM. […] The cells were then washed twice with cold DPBS, 1% w/v BSA, 2 mM CaCl₂) and incubated on ice until further analysis by confocal microscopy or flow-cytometry. Samples subjected to SDS-PAGE/western blotting were washed twice with DPBS alone to remove excess BSA. […] Adherent cell lines: The various adherent cell lines were cultured individually. Plated cells were lifted using trypsin, washed with complete medium and counted to estimate the cell concentration. Then 200,000 cells were seeded in a 24 well plate format and allowed 24 hr recovery and attachment in complete media. The assay protocol for SMART-SpyCatcher actuation and SpyTag003 recruitment follows that outlined above for the suspension cell lines. Post-treatment, the adherent cells were washed twice with DPBS, 1% w/v BSA, 2 mM CaCl₂) and then lifted with a non-enzymatic solution of DPBS, 1% w/v BSA, 50 mM EDTA and incubated on ice before analysis by flow-cytometry. For SDS-PAGE/western blotting cells were lifted as described and then washed with DPBS alone to remove excess BSA. […]

[8] = target: T1, HER2, endogenous on human cell lines (human, UniProt P04626 23-1255); assay: flow cytometry, 100 nM DARPin-AF594 on human cancer cell lines
T1 construct: whole, on cells

[9] = target: B3; assay: confocal microscopy, K562 HER2+/EGFR+ cells; splicing-dead SpyN-αHER2 together with SpyC-αEGFR
[10] = target: T2, Epithelial Cell Adhesion Molecule (EpCAM), endogenous on human cell lines (human, UniProt P16422 24-314); assay: flow cytometry, 100 nM DARPin-AF594 on human cancer cell lines
T2 construct: whole, on cells
T2 sequence (looked up): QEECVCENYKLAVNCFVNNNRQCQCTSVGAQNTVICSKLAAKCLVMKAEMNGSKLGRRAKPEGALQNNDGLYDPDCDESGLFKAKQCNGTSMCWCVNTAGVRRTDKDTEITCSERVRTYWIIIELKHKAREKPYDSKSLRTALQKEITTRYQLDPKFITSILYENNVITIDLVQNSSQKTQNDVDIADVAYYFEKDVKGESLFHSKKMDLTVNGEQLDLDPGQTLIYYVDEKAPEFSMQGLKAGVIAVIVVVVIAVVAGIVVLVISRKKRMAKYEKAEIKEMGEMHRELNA

B1
binding result [1]: binds

B2: reconstituted SpyCatcher003 with K31E, spliced from SpyN-αHER2(K31E) and SpyC-αEGFR (other)
chain: DYKDDDDKDLGKKLLEAARAGQDDEVRILMANGADVNAKDEYGLTPLYLATAHGHLEIVEVLLKNGADVNAVDAIGFTPLHLAAFIGHLEIAEVLLKHGADVNAQDKFGKTAFDISIGNGNEDLAEILQKLNGSTSGSVTTLSGLSGEQGPSGDMTTEEDSATHIKFSERDEDGRELAGATMELRDSSGKTISTWISDGHVKDFYLYPGKYSFVETAAPDGYEVATPIEFTVNEDGQVTVDGEATEGDAHTGSTSGSDLGKKLLEAARAGQDDEVRILMANGADVNADDTWGWTPLHLAAYQGHLEIVEVLLKNGADVNAYDYIGWTPLHLAADGHLEIVEVLLKNGADVNASDYIGDTPLHLAAHNGHLEIVEVLLKHGADVNAQDKFGKTAFDISIDNGNEDLAEILQKLNEQKLISEEDL
notes: K31 is counted on SpyCatcher003; ranges derived as for m26; also called defective POI; defective output
binding result [2]: no binding (tested: 100 nM)

B3
binding result [3]: binds

B4: SpyTag003-DNP (His6-SpyTag003-SUMO-Cys dinitrophenol conjugate) (other)
chain: MGSSHHHHHHSSGLVPRGSRGVPHIVMVDAYKRYKGSGESGMSDSEVNQEAKPEVKPEVKPETHINLKVSDGSSEIFFKIKKTTPLRRLMEAFAKRQGKEMDSLRFLYDGIRIQADQTPEDLDMEDNDIIEAHREQIGC
modifications: 2,4-dinitrophenyl-maleimide on the C-terminal Cys
notes: Conjugate of SpyTag003-Cys; also called SpyTag003 2,4-dinitrolphenol conjugate; dinitrophenyl probe
binding result [4]: binds

B5: SpyTag003-biotin (His6-SpyTag003-SUMO-Cys biotin conjugate) (other)
chain: MGSSHHHHHHSSGLVPRGSRGVPHIVMVDAYKRYKGSGESGMSDSEVNQEAKPEVKPEVKPETHINLKVSDGSSEIFFKIKKTTPLRRLMEAFAKRQGKEMDSLRFLYDGIRIQADQTPEDLDMEDNDIIEAHREQIGC
modifications: biotin maleimide on the C-terminal Cys
notes: Conjugate of SpyTag003-Cys; also called biotinylated probe
binding result [5]: binds

B6: SpyTag003^D117A-AF594 (His6-SpyTag003^D117A-SUMO-Cys Alexa Fluor 594 conjugate) (other)
chain: MGSSHHHHHHSSGLVPRGSRGVPHIVMVAAYKRYKGSGESGMSDSEVNQEAKPEVKPEVKPETHINLKVSDGSSEIFFKIKKTTPLRRLMEAFAKRQGKEMDSLRFLYDGIRIQADQTPEDLDMEDNDIIEAHREQIGC
modifications: Alexa Fluor 594 C5 maleimide on the C-terminal Cys
binding result [6]: no binding (tested: 100 nM)

B7: SpyTag003-APEX2 (His6-SpyTag003-HA-APEX2) (other)
chain: MGSSHHHHHHSSGLVPRGSRGVPHIVMVDAYKRYKGSGESGYPYDVPDYASSGGKSYPTVSADYQDAVEKAKKKLRGFIAEKRCAPLMLRLAFHSAGTFDKGTKTGGPFGTIKHPAELAHSANNGLDIAVRLLEPLKAEFPILSYADFYQLAGVVAVEVTGGPKVPFHPGREDKPEPPPEGRLPDPTKGSDHLRDVFGKAMGLTDQDIVALSGGHTIGAAHKERSGFEGPWTSNPLIFDNSYFTELLSGEKEGLLQLPSDKALLSDPVFRPLVDKYAADEDAFFADYAEAHQKLSELGFADA
notes: Not SUMO-tagged
binding result [7]: binds

B8: αHER2-AF594 DARPin (αHER2-HA-Cys Alexa Fluor 594 conjugate) (designed binder)
chain: DLGKKLLEAARAGQDDEVRILMANGADVNAKDEYGLTPLYLATAHGHLEIVEVLLKNGADVNAVDAIGFTPLHLAAFIGHLEIAEVLLKHGADVNAQDKFGKTAFDISIGNGNEDLAEILQKLNGGYPYDVPDYAGGSC
modifications: Alexa Fluor 594 C5 maleimide on the C-terminal Cys
notes: His6-SUMO tag cut off with Ulp1; range derived by counting; also called targeting DARPin labeled with AF594
binding result [8]: binds

B9: αHER2-SpyN-eNrdJ-1N^cage Cys1-alkylated (other)
chain: DYKDDDDKDLGKKLLEAARAGQDDEVRILMANGADVNAKDEYGLTPLYLATAHGHLEIVEVLLKNGADVNAVDAIGFTPLHLAAFIGHLEIAEVLLKHGADVNAQDKFGKTAFDISIGNGNEDLAEILQKLNGSTSGSVTTLSGLSGEQGPSGDMTTEEDSATHIKFSKRDEDGRELAGATMELRDSSGKTISTWISDGHVKDFYLYPGKYCLVGSSEIITRNYGKTTIKEVVEIFDNDKNIQVLAFNTHTDNIEWAPIKAAQLTRPNAELVELEIDTLHGVKTIRVTPDHPVYTKNRGYVRADELTDDDELVVAIENLYGDEVNGYFQGMEAETYIGKLKSRAIVSNEDTYDIQTSTHNFFAND
modifications: Cys1 of eNrdJ-1N^cage alkylated with iodoacetamide (residue 331 of the printed SEQ ID NO 26)
notes: His6-SUMO tag cut off with Ulp1; range derived by counting; also called SpyN-αHER2 with Cys1-alkylated NrdJ-1N^cage
binding result [9]: no binding (tested: 100 nM)

B10: αEpCAM-AF594 DARPin (αEpCAM-HA-Cys Alexa Fluor 594 conjugate) (designed binder)
chain: DLGKKLLEAARAGQDDEVRILVANGADVNAYFGTTPLHLAAAHGRLEIVEVLLKNGADVNAQDVWGITPLHLAAYNGHLEIVEVLLKYGADVNAHDTRGWTPLHLAAINGHLEIVEVLLKNVADVNAQDRSGKTPFDLAIDNGNEDIAEVLQKAAKLNGGYPYDVPDYAGGSC
modifications: Alexa Fluor 594 C5 maleimide on the C-terminal Cys
notes: as for B8
binding result [10]: binds
